The record followed here is PMC7954794, “Protein context shapes the specificity of SH3 domain-mediated interactions in vivo” (Nature Communications, 2021).

Experiment [1] deals with 575 putative partners (preys) of 22 WT SH3-containing proteins. The experiment can be described thus: DHFR-PCA on solid medium, WT and SH3-deleted baits (Fig. 1B). Further details: key to Score: 0: SH3-independent; 1: SH3-dependent PPIs; 2: SH3-inhibited PPIs. The conditions noted are these: for medrep (log2 median colony size normalized to plate background, PCA score): label = prey; for Ratio (SH3-deleted/WT medrep): only significant differences shown, PPIs completely lost have a ratio of 0.1, gained PPIs 2.5. The class given is cell-based, Saccharomyces cerevisiae. From the text: To assess the requirement of SH3 domains for PPIs in vivo, we first measured binary interactions between 22 WT SH3-containing proteins (Supplementary Fig. 1A) as baits and 575 putative partners from their interconnected signaling networks using the dihydrofolate reductase protein–fragment complementation assay (DHFR-PCA) in the budding yeast Saccharomyces cerevisiae. About 33% (202/607) of the PPIs detected were described before, mostly by direct methods (Supplementary Fig. 1B, C)[11]. We repeated the experiments with baits in which the SH3s were individually replaced with a flexible linker by genome editing (SH3 domain deletion/stuffing, Fig. 1A). The stuffer DNA sequence ([…]) codes for a small flexible poly-Gly with Ser peptide ([…]) that is inspired by previous experiments[12],[13]. About a third of the SH3-containing protein interactome is qualitatively or quantitatively SH3-dependent (171 PPIs out of 607, Fig. 1B and Supplementary Fig. 1B, C). We validated the vast majority of the quantitative changes in low-throughput experiments and excluded that this is simply due to changes in protein abundance in most cases (Supplementary Fig. 1D–G). SH3-binding motifs[14] are more frequent in the SH3-dependent PPI partners when compared to sequences from random proteins, SH3-independent PPI partners or PPI partners that are stronger or gained following SH3 deletions (p values = 1.5 × 10^−17, 0.0038 and 2.1 × 10^−08, respectively; Mann–Whitney test, one-tailed, Fig. 1C). The changes we measure are therefore enriched for PPIs that depend on the direct interactions of the domains with the PPI partners.
The complete list of strains, primers, and gRNAs used in this study can be found in Supplementary Tables 1–3. All constructed yeast strains were validated by polymerase chain reaction (PCR) and confirmed by Sanger sequencing of the locus of interest. Bait strains for the DHFR-PCA experiments were constructed as follows. The genes of interest were fused at their genomic 3′ end by replacing the stop codon with a linker ([…]), the DHFR F[1,2] followed by a smaller linker (GGGGS), a 1× FLAG tag ([…]) and the NATMX4 resistance cassette via homologous recombination (all amplified from pAG25-DHFR[1,2]-linker-FLAG). The set of 615 prey strains (DHFR F[3] fusions in the BY4742 background) were retrieved from the Yeast Protein Interactome Collection[43] with the exception of 73 that were reconstructed (Supplementary Tables 1 and 2). Knockout strains were taken from the yeast knockout collection except for ABP1, BEM1, BZZ1, and SLA1, which were reconstructed by replacing the ORFs with the NATMX4 resistance cassette by homologous recombination in the BY4741 background.
Yeast SH3 domain genomic sequences were replaced by CRISPR–Cas9 genome editing. Each SH3 domain (as defined by the SMART database V8.0 except for Ysc84 SH3 (as defined by PROSITE), see Source Data for all SH3 sequences and Supplementary Table 1 for primers used) was specifically targeted by one gRNA[46]. Yeast competent cells were co-transformed with a pCAS plasmid (Addgene plasmid 60847[47]) expressing both the gRNA of interest and Streptococcus pyogenes Cas9[46] and a donor DNA sequence (stuffer) with 60 bp homology arms surrounding the SH3 DNA sequence. The Stuffer DNA was either PCR amplified or digested from a plasmid. The stuffer DNA sequence ([…]) codes for a small flexible linker ([…]) inspired by protein linkers used in structural biology[12],[13]. This type of linker is frequently used for fusing proteins without affecting the structure of the linked proteins.
The overall DHFR-PCA pipeline is based on Tarassov et al.[43] and the procedures have also been published as a visualized protocol. The screens were performed with robotically manipulated pin tools (BM5-SC1, S&P Robotics Inc.). First, the preys were cherry-picked from 96-well plates to omnitrays in a 384 format on YPD + HPH solid media. […]

A further experiment deals with ABP1. Nature of the experiment: DHFR-PCA on solid medium, bait ABP1 (Fig. 1B). Format: cell-based, Saccharomyces cerevisiae. The conditions noted are these: bait ABP1, label = prey; 2-4 replicates. From the text:
Supplement 41467_2021_21873_MOESM8_ESM.xlsx, sheet "Fig1B" | column: medsize; medrep; Ratio; Score

The mark [2] stands for this setting: bait SLA1-2, DHFR-PCA, Replicates 4 (2 for YCR009C, YDR388W).
Where [3] appears, read: bait SLA1-3, DHFR-PCA, Replicates 4 (2 for YCR009C, YDR388W, YIL033C).

B1: YLR206W (protein, UniProt Q05785 1-613, looked up)
Epsin-2: MSKQFVRSAKNMMKGYSSTQVLVRDATANDSRTPSIDTLDDLAQRSYDSVDFFEIMDMLDKRLNDKGKYWRHVAKSLTVLDYLVRFGSENCVLWCRENFYVIKTLREFRHENESGFDEGQIIRVKAKELVSLLNDEERLREERSMNTRNRRANRAARPRPRRQRTRSNPHDSSPSYQDDLEKALEESRITAQEDEQRRRELAQYDDEDPDFQAALQLSKEEEELKQLQELQRLQKQQQSLSQFQAPLQQQQPQQQPAYYDIFGNPISQDEYLQYQYQQDQEQAMAQQRWLDQQQEQQQLAEQQYFQQQQQAAAAASALQQQQTAANMQQQQQQPADFQQPLPTGSNNPFSMDNLERQKQEQQHAQLQRQQEEARQQQEQLKLQQLQRQQQEEAQLHQKRQEEAQLQQQQAQLLQQQAQFQQQQPLKQTRTGNQSISDKYSDLNTLLATGTGIDTFGNTGEARIPAQHTKTGTFINSQGTGYKQVTNEPKNNPFLSNQYTGLPSTNIVPTQTGYGFGNQPQSPPTNSPQQNPTGISYSQPQQQQQPQQQPQYMQNFQQQQPQYAQNFQQQPQYTQNYQQQPQYIQPHQQQQQQQQQQQQQQGYTPDQGVSLIDL
Consider B1, for which the results for the “medrep (log2 median colony size normalized to plate background, PCA score)” value (in experiment [1] (setting [2]); in experiment [1] (setting [3]); in the experiment on ABP1) were 2.135, 2.135 and 2.696, respectively. In addition, the Score came out at 1 in experiment [1] (bait SLA1-2, label = prey) and 0 in experiment [1] (bait SLA1-3, label = prey). In experiment [1] (bait SLA1-2, label = prey), the “Ratio (SH3-deleted/WT medrep)” value is reported as 0.1.

B2: YKR001C (protein, UniProt P21576 1-704, looked up)
Vacuolar protein …: MDEHLISTINKLQDALAPLGGGSQSPIDLPQITVVGSQSSGKSSVLENIVGRDFLPRGTGIVTRRPLVLQLINRRPKKSEHAKVNQTANELIDLNINDDDKKKDESGKHQNEGQSEDNKEEWGEFLHLPGKKFYNFDEIRKEIVKETDKVTGANSGISSVPINLRIYSPHVLTLTLVDLPGLTKVPVGDQPPDIERQIKDMLLKYISKPNAIILSVNAANTDLANSDGLKLAREVDPEGTRTIGVLTKVDLMDQGTDVIDILAGRVIPLRYGYIPVINRGQKDIEHKKTIREALENERKFFENHPSYSSKAHYCGTPYLAKKLNSILLHHIRQTLPEIKAKIEATLKKYQNELINLGPETMDSASSVVLSMITDFSNEYAGILDGEAKELSSQELSGGARISYVFHETFKNGVDSLDPFDQIKDSDIRTIMYNSSGSAPSLFVGTEAFEVLVKQQIRRFEEPSLRLVTLVFDELVRMLKQIISQPKYSRYPALREAISNQFIQFLKDATIPTNEFVVDIIKAEQTYINTAHPDLLKGSQAMVMVEEKLHPRQVAVDPKTGKPLPTQPSSSKAPVMEEKSGFFGGFFSTKNKKKLAALESPPPVLKATGQMTERETMETEVIKLLISSYFSIVKRTIADIIPKALMLKLIVKSKTDIQKVLLEKLYGKQDIEELTKENDITIQRRKECKKMVEILRNASQIVSSV
In the case of B2, the entries for the “medrep (log2 median colony size normalized to plate background, PCA score)” value (in experiment [1] (setting [2]); in experiment [1] (setting [3]); with ABP1) were 1.835, 1.835 and 2.787, respectively. For the same molecule, the Score is on record as 1 in experiment [1] (bait SLA1-2, label = prey) and 0 in experiment [1] (bait SLA1-3, label = prey). For the same molecule, the “Ratio (SH3-deleted/WT medrep)” value in experiment [1] (bait SLA1-2, label = prey) came to 0.1.
